# Source: patent publication US20200385427A1
# Starred links: 1 amine or outer side, 2 acyl side, 3 side chain; linkers in the order of their positions; H or OH if unused. Non-standard residues stand in square brackets, D forms with d. No end group written: not given here. Trimesoyl = O=C(c1cc(C(=O)[*:2])cc(C(=O)[*:3])c1)[*:1]; F2Pmp = N[C@@H](Cc1ccc(C(F)(F)P(=O)(O)O)cc1)C(=O)O; Phe(4-F) = N[C@@H](Cc1ccc(F)cc1)C(=O)O; dPhe(4-F) = N[C@H](Cc1ccc(F)cc1)C(=O)O; 2Nal = N[C@@H](Cc1ccc2ccccc2c1)C(=O)O; Phg = N[C@H](C(=O)O)c1ccccc1; Pip = O=C(O)[C@@H]1CCCCN1; Nle = CCCC[C@H](N)C(=O)O; Dap = NC[C@H](N)C(=O)O; Sar = CNCC(=O)O
# B1: peptide 6 (Table 18) (peptide)
# peptide: XXHEXXRAAXFXRRRRXK
# modifications: not fully specified; bicyclo[Tm-(Phg-His-D-Glu-Pip-Nal-Arg-Ala-D-Ala)-Dap-(Phe-Nal-Arg-Arg-Arg-Arg-Dap)]-Lys
# B2: peptide 37 (Table 18) (peptide)
# peptide: Trimesoyl-[dPhe(4-F)][Phe(4-F)][dT][Pip][2Nal]RA[dF][Dap]F[2Nal]RRRR[Dap]K
# modifications: linker (positions not given here) via Trimesoyl; not fully specified (C-terminus, bridges); printed as bicyclo[Tm-(D-4-Fpa-Fpa-D-Thr-Pip-Nal-Arg-Ala-D-Phe)-Dap-(Phe-Nal-Arg-Arg-Arg-Arg-Dap)]-Lys
# B3: peptide 4 (Table 18) (peptide)
# peptide: Trimesoyl-[dF][Phe(4-F)][dT][Pip][2Nal]RA[dA][Dap]F[2Nal]RRRR[Dap]K
# modifications: linker (positions not given here) via Trimesoyl; not fully specified (C-terminus, bridges); printed as bicyclo[Tm-(D-Phe-Fpa-D-Thr-Pip-Nal-Arg-Ala-D-Ala)-Dap-(Phe-Nal-Arg-Arg-Arg-Arg-Dap)]-Lys
# B4: peptide 22 (Table 18) (peptide)
# peptide: Trimesoyl-P[Sar][dD][Pip][2Nal]RR[dF][Dap]F[2Nal]RRRR[Dap]K
# modifications: linker (positions not given here) via Trimesoyl; not fully specified (C-terminus, bridges); printed as bicyclo[Tm-(Pro-Sar-D-Asp-Pip-Nal-Arg-Arg-D-Phe)-Dap-(Phe-Nal-Arg-Arg-Arg-Arg-Dap)]-Lys
# B5: peptide 7 (Table 18) (peptide)
# peptide: XXIEXXRAAXFXRRRRXK
# modifications: not fully specified; bicyclo[Tm-(Mpa-Ile-D-Glu-Pip-Nal-Arg-Ala-D-Ala)-Dap-(Phe-Nal-Arg-Arg-Arg-Arg-Dap)]-Lys
# B6: Monocyclic Inhibitor 1 (peptide)
# peptide: cyclo([dT][dN][dV][F2Pmp][dA]RRRR[2Nal]FQ)
# SMILES: CC(C)[C@H]1NC(=O)[C@@H](CC(N)=O)NC(=O)[C@@H]([C@H](C)O)NC(=O)[C@H](CCC(N)=O)NC(=O)[C@H](Cc2ccccc2)NC(=O)[C@H](Cc2ccc3ccccc3c2)NC(=O)[C@H](CCCNC(=N)N)NC(=O)[C@H](CCCNC(=N)N)NC(=O)[C@H](CCCNC(=N)N)NC(=O)[C@H](CCCNC(=N)N)NC(=O)[C@@H](C)NC(=O)[C@H](Cc2ccc(C(F)(F)P(=O)(O)O)cc2)NC1=O
# B7: Pin1 inhibitor 7 (peptide)
# peptide: XAXXXXRAAXFXRRRRXK
# modifications: not fully specified; bicyclo[Tm(D-Ala-Sar-D-pThr-Pip-Nal-Arg-Ala-D-Ala)-Dap-(Phe-Nal-Arg-Arg-Arg-Arg-Dap)]-Lys-NH2
# B8: peptide 8 (Table 18) (peptide)
# peptide: XHXTXXRAAXFXRRRRXK
# modifications: not fully specified; bicyclo[Tm-(His-Phg-D-Thr-Pip-Nal-Arg-Ala-D-Ala)-Dap-(Phe-Nal-Arg-Arg-Arg-Arg-Dap)]-Lys
# Columns and labels:
# [1] = molecular target: Pin1 (human) (UniProt Q13526); test: fluorescence anisotropy, FITC-labeled peptide
# [2] = molecular target: MBP-Pin1 (S16A/Y23A mutant Pin1 as a maltose-binding protein fusion at the N-terminus) (UniProt Q13526); test: FA of TMR-labeled peptide released from the bead, 5 µM MBP-Pin1
# [3] = molecular target: Pin1 (human) (UniProt Q13526); test: cell-based or functional assay
# [4] = molecular target: ybbR-tagged PTP1B catalytic domain (amino acids 1-321) (UniProt P18031); test: cell-based or functional assay
# [5] = molecular target: full-length human S16A/Y23A mutant Pin1 (human) (UniProt Q13526); test: fluorescence anisotropy, FITC-labeled peptide
# Sequence of ybbR-tagged PTP1B catalytic domain (amino acids 1-321) (P18031 other isoform, or with tags, fused parts or gaps limits assumed): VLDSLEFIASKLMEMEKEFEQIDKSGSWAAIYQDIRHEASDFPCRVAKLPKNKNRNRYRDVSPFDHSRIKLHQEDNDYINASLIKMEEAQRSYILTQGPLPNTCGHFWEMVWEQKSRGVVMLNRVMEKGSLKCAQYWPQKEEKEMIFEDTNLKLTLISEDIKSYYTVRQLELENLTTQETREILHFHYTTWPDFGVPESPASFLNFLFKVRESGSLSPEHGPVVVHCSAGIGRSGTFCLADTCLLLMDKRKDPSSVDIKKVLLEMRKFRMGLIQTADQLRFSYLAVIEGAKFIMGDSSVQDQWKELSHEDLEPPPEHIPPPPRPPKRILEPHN
binder,measurement,setting,value
B1,Kd,[1],1000 nM
same,FA increase relative to the no-protein control,[2],> 50%
B2,"IC50 (HeLa cell growth, MTT assay)",[3],1000 nM
same,IC50 (cis-trans isomerase activity toward Suc-Ala-Glu-Pro-Phe-pNA),[3],170 nM
same,"PML protein level in HeLa cells (western blot), at 0.2 µM inhibitor",[3],1.8 fold
same,"PML protein level in HeLa cells (western blot), at ˜1 µM inhibitor",[3],3.3 fold
B3,Kd,[1],1000 nM
B4,fold increase of Pin1 inhibitory activity against the D-Ala parent,[1],2 fold
cyclo(IP[Phg][F2Pmp][Nle]RRRR[2Nal]FQ) [Monocyclic Inhibitor 3],IC50 (inhibition of pNPP hydrolysis),[4],200 nM
B5,Kd,[1],1000 nM
same,FA increase relative to the no-protein control,[2],> 50%
AXXXXYQK (cyclo(D-Ala-Sar-D-pThr-Pip-Nal-Tyr-Gln)-Lys-NH2) [Pin1 inhibitor 5],Kd,[1],240 nM
B6,IC50 (inhibition of pNPP hydrolysis),[4],100 nM
B7,"IC50 (HeLa cell growth, MTT assay)",[3],1800 nM
same,"PML protein level in HeLa cells (western blot), at 5 µM",[3],3.1 fold
same,fold improvement of potency against inhibitor 6,[5],2 fold
B8,Kd,[1],1000 nM
same,FA increase relative to the no-protein control,[2],> 50%
